Data on two molecules can be found in publication PMC5934816, “Towards development of aptamers that specifically bind to lactate dehydrogenase of Plasmodium falciparum through epitopic targeting”.

The target in series [1] is rPvLDH, lactate dehydrogenase (Plasmodium vivax, UniProt Q4PRK9 1-316). Briefly: ELONA. Conditions: protein: recombinant; chain copies: 4.
Series [2] concerns the target rPfLDH, lactate dehydrogenase (Plasmodium falciparum, UniProt Q71T02 1-316). Briefly: ELONA; ELONA: 500 ng immobilized protein; aptamer in HMCKN (2 mM HEPES, 0.2 mM MgCl2, 0.2 mM CaCl2, 0.2 mM KCl, 15 mM NaCl, pH 7.4), 2 h, room temperature; washes HMCKN then 25 mM TBS pH 7.6, 0.1% NP-40. Conditions: protein: recombinant; chain copies: 4; label: 5'-biotin.

B1: C7 concatemer control (ssDNA)
DNA: ACTTTGCACATGCTTATTCTTGTCTCCCATGCCTGTTGTGAGCCTCCTAAC
In the case of B1, the binding result in series [1] and in series [2] was “no binding” throughout. What is called Kd is the free concentration of one partner at which half of the binding sites on the other are occupied at equilibrium, for simple one-to-one binding. For the molecule GTTCGATTGGATTGTGCCGGAAGTGCTGGCTCGAAC (ssDNA) [pL1], in series [1], the Kd is 79.2 ± 12.7 nM.
